B1: Eukaryotic translation initiation factor 4E-binding protein 2 (Homo sapiens), Q13542 (parent)
chain: MSSSAGSGHQPSQSRAIPTRTVAISDAAQLPHDYCTTPGGTLFSTTPGGTRIIYDRKFLLDRRNSPMAQTPPCHLPNIPGVTSPGTLIEDSKVEVNNLNNLNNHDRKHAVGDDAQFEMDI

Variants of: B1
Conditions: with if4e_human EIF4E
With I78A;P79A;G80A;V81A;T82A the “effect of a mutation on the interaction” value was “decreasing interaction strength”.
For Y54A;L59A, the “effect of a mutation on the interaction” value was “decreasing interaction strength”.

Variants of: B1
Conditions: with if4e_human EIF4E
Remark: another data set of the same source
In the case of Y54A;L59A;I78A;P79A;G80A;V81A;T82A, the “effect of a mutation on the interaction” value is reported as “disrupting interaction strength”.

— IntAct's records for PubMed 24207126
